From PMC13534702, “Polo/PLK1 phosphorylation relieves Centrosomin/Cnn autoinhibition to promote centrosome scaffold assembly” (The EMBO Journal, 2026)
Changes are numbered by the printed parent chain. In names and notes the source's numbering stands.

T1: MBP-Cnn_(490-608) 2E (S567E/S571E) (Drosophila melanogaster, UniProt P54623-2 490-608, S567E | S571E)
T1 construct: also called 2E mutant; source: E. coli BL21 (DE3), purified; not shown: MBP, N-terminal, kept
T1 sequence (looked up): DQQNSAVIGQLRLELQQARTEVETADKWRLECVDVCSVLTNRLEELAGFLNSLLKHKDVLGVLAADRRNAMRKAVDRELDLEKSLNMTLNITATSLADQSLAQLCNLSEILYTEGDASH

T2: Cnn_(490-608), tag cleaved (SEC-MALS) (Drosophila melanogaster, UniProt P54623-2 490-608)
T2 construct: also called PReMΔH1ΔNTH2; source: E. coli BL21 (DE3), purified, tag cleaved for SEC-MALS; not shown: His6, N-terminal, cleaved; MBP, N-terminal, cleaved
T2 sequence (looked up): T1 sequence (looked up) with E78S, E82S

T3: Full-length SPD-5-GFP (C. elegans), P91349
T3 chain: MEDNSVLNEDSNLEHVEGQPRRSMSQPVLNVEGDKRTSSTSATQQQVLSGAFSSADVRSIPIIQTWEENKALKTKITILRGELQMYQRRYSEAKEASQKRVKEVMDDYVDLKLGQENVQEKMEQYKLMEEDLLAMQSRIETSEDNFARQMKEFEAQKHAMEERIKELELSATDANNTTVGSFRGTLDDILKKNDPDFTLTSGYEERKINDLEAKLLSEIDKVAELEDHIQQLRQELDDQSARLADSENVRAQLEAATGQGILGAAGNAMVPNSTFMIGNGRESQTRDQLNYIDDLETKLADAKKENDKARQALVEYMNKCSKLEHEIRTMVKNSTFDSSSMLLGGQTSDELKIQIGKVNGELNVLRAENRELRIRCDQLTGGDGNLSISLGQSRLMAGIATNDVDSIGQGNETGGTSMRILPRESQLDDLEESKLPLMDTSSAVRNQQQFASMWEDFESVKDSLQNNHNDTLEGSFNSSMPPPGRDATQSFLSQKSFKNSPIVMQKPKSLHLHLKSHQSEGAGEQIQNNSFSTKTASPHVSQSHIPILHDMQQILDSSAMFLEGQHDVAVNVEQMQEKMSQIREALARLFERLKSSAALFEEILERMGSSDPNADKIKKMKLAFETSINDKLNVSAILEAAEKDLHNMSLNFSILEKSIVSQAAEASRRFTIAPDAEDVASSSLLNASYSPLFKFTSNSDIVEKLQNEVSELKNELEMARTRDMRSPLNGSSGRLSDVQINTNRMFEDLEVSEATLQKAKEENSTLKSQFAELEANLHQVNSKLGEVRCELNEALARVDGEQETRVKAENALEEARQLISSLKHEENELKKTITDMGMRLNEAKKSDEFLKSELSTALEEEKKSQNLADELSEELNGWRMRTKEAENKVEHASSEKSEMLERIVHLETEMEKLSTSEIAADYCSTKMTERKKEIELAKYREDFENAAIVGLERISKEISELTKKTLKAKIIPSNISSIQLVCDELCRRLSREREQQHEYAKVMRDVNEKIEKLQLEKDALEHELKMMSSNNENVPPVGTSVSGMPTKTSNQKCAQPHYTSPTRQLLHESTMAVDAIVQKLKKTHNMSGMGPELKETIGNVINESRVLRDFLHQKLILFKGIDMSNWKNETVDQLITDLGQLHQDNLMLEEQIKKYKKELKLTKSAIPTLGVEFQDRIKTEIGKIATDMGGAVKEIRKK

B1: MBP-Cnn_(490-608) WT (domain or fragment, Drosophila melanogaster, UniProt P54623-2 490-608, looked up)
chain: T1 sequence (looked up) with E78S, E82S
notes: I take the same protein to have been used there; source: E. coli BL21 (DE3), purified; not shown: MBP, N-terminal, kept
B2: MBP-Cnn_(490-608) 2A (S567A/S571A) (domain or fragment, Drosophila melanogaster, UniProt P54623-2 490-608, looked up)
chain: T1 sequence (looked up) with E78A, E82A
notes: also called 2A-mutant PReM; source: E. coli BL21 (DE3), purified; not shown: MBP, N-terminal, kept
B3: Drosophila Cnn CM2 domain (domain or fragment, Drosophila melanogaster, UniProt P54623-2 1082-1148, looked up)
chain: HDCAKVDLENAELRRKLIRTKRAFEDTYEKLRMANKAKAQVEKDIKNQILKTHNVLRNVRSNMENEL
notes: the EM methods print 1077-1148; The methods say that the N-terminal tag was cleaved for SEC-MALS, crystallisation or further use; also called DmCM2; fly CM2; source: E. coli BL21 (DE3), purified
B4: Full-length SPD-5-GFP, P91349 1-1198 (natural protein)
chain: T3 chain
B5: Full-length Cnn-GFP (natural protein, Drosophila melanogaster, UniProt P54623-2 1-1148, looked up)
chain: MDQSKQVLRDYCGDGNGTCASSLKEITLIETVTSFLEENGAAEIDRRVLRKLAEALSKSIDDTSPGALQDVTMENSYASFDVPRPPGGGNSPLPSQGRSVRELEEQMSALRKENFNLKLRIYFLEEGQPGARADSSTESLSKQLIDAKIEIATLRKTVDVKMELLKDAARAISHHEELQRKADIDSQAIIDELQEQIHAYQMAESGGQPVENIAKTRKMLRLESEVQRLEEELVNIEARNVAARNELEFMLAERLESLTACEGKIQELAIKNSELVERLEKETASAESSNANRDLGAQLADKICELQEAQEKLKERERIHEQACRTIQKLMQKLSSQEKEIKKLNQENEQSANKENDCAKTVISPSSSGRSMSDNEASSQEMSTNLRVRYELKINEQEEKIKQLQTEVKKKTANLQNLVNKELWEKNREVERLTKLLANQQKTLPQISEESAGEADLQQSFTEAEYMRALERNKLLQRKVDVLFQRLADDQQNSAVIGQLRLELQQARTEVETADKWRLECVDVCSVLTNRLEELAGFLNSLLKHKDVLGVLAADRRNAMRKAVDRSLDLSKSLNMTLNITATSLADQSLAQLCNLSEILYTEGDASHKTFNSHEELHAATSMAPTVENLKAENKALKKELEKRRSSEGQRKERRSLPLPSQQFDNQSESEAWSEPDRKVSLARIGLDETSNSLAAPEQAISESESEGRTCATRQDRNRNSERIAQLEEQIAQKDERMLNVQCQMVELDNRYKQEQLRCLDITQQLEQLRAINEALTADLHAIGSHEEERMVELQRQLELKNQQIDQLKLAHSTLTADSQITEMELQALQQQMQEIEQLHADSVETLQSQLQKLKLDAVQQLEEHERLHREALERDWVALTTYQEQAQQLLELQRSLDYHQENEKELKQTLVENELATRALKKQLDESTLQASKAVMERTKAYNDKLQLEKRSEELRLQLEALKEEHQKLLQKRSNSSDVSQSGYTSEEVAVPMGPPSGQATTCKQAAAAVLGQRVNTSSPDLGIESDAGRISSVEVSNAQRAMLKTVEMKTEGSASPKAKSEESTSPDSKSNVATGAATVHDCAKVDLENAELRRKLIRTKRAFEDTYEKLRMANKAKAQVEKDIKNQILKTHNVLRNVRSNMENEL
notes: Centrosomin (Cnn), Drosophila melanogaster, full length, synthesised gene; also called Cnn-WT; not shown: MBP, N-terminal, cleaved; mGFP, C-terminal, kept; His10, C-terminal, cleaved

Assays:
[1] = target: the molecule itself; assay: SEC; MBP-Cnn 490-608 variants run alone; absorbance at 280 nm; size judged from the elution volume
MBP-Cnn_(490-608) WT = target: B1; assay: SEC; PReM domain (Cnn 490-608) variants mixed with CM2; fractions checked on SDS gels; conditions: both partners purified
[2] = target: T1, MBP-Cnn_(490-608) 2E (S567E/S571E); assay: as above; conditions: both partners purified
[3] = target: T2, Cnn_(490-608), tag cleaved (SEC-MALS); assay: SEC-MALS; Cnn 490-608 mixed with CM2; Superdex 75 or Superdex 200 10/300 Increase; 20 mM Tris pH 7.5, 150 mM NaCl, 0.5 mM TCEP; 0.5 mL/min; fraction checked on an SDS gel; conditions: both partners purified
[4] = target: T3, Full-length SPD-5-GFP (C. elegans), …; assay: mass photometry; full-length GFP fusions in solution; 20 mM HEPES, 150 mM KCl, pH 7.25; low nanomolar concentration (10 nM final by the procedure of the standards); conditions: remark: other sources report otherwise
[5] = target: the molecule itself; assay: as above

B1
stoichiometry N [1]: 2

B2
stoichiometry N [1]: 2

B3
binding result (MBP-Cnn_(490-608) WT): binds | binding result [2]: binds | binding result [3]: binds

B4
stoichiometry N [4]: 2

B5
stoichiometry N [5]: 2
